{"source": "the supplement of paper PMC6379048", "assay_in_all_cases": "EC50 of free RNA motif oligo competing protein binding to immobilised probe", "key": {"P4HB": {"molecular_target": "P4HB (UniProt P07237)", "sequence (P07237 whole entry, looked up)": "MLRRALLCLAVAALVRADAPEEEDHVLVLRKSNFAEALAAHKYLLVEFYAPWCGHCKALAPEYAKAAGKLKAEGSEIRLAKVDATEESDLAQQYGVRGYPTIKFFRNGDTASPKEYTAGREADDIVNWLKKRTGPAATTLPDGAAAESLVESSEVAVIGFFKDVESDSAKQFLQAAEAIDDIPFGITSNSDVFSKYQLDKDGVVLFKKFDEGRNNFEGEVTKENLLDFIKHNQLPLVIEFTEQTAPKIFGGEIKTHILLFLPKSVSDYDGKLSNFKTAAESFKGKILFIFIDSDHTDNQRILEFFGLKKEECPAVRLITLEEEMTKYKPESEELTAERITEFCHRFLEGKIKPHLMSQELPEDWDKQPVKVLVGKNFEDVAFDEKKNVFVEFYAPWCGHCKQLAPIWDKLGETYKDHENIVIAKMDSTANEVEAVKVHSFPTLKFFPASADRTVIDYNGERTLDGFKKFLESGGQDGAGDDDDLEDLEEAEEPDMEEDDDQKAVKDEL", "in_short": "(§1)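 Free RNA oligos (0 nM to 30 μM) competed for 1 h at 4°C in HEK293-FT lysate (2.5 mg protein/well) before a 30 min, 4°C pulldown with the same oligos on NHS-Sepharose beads. Bound proteins were quantified by label-free LC-MS/MS and normalised to the control. Kd was found by multiplying EC50, from a four-parameter log-logistic fit, by a protein-dependent depletion factor.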"}, "GPATCH11": {"molecular_target": "GPATCH11 (UniProt Q8N954)", "sequence (Q8N954 whole entry)": "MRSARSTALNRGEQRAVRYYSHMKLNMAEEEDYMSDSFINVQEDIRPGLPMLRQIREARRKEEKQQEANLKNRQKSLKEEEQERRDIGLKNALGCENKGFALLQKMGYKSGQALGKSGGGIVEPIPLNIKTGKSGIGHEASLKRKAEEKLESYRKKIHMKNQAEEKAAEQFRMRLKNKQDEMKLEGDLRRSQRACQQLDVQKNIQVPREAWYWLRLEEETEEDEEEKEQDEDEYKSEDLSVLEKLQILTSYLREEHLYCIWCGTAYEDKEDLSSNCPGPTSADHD", "in_short": "as §1"}, "SF3B6": {"molecular_target": "SF3B6 (UniProt Q9Y3B4)", "sequence (Q9Y3B4 whole entry)": "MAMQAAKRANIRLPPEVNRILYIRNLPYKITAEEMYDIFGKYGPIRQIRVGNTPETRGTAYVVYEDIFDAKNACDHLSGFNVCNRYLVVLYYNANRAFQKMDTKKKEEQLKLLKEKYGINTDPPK", "in_short": "as §1"}, "P4HA2": {"molecular_target": "P4HA2 (UniProt O15460)", "sequence (O15460 whole entry)": "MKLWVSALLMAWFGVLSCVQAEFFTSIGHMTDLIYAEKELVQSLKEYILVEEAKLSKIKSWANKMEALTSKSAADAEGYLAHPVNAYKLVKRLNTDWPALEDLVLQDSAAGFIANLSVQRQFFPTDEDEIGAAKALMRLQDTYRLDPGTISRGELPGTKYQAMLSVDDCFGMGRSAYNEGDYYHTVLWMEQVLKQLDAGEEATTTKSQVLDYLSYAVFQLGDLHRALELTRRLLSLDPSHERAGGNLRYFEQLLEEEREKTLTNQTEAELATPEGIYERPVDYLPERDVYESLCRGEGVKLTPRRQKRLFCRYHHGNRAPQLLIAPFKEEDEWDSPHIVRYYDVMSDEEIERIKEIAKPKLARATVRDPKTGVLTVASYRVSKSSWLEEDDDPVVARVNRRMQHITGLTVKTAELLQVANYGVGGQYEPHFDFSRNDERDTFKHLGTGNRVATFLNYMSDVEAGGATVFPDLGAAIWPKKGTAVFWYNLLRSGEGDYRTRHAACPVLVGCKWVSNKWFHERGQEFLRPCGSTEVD", "in_short": "as §1"}, "HNRNPR": {"molecular_target": "T1, HNRNPR (UniProt O43390)", "T1 sequence": "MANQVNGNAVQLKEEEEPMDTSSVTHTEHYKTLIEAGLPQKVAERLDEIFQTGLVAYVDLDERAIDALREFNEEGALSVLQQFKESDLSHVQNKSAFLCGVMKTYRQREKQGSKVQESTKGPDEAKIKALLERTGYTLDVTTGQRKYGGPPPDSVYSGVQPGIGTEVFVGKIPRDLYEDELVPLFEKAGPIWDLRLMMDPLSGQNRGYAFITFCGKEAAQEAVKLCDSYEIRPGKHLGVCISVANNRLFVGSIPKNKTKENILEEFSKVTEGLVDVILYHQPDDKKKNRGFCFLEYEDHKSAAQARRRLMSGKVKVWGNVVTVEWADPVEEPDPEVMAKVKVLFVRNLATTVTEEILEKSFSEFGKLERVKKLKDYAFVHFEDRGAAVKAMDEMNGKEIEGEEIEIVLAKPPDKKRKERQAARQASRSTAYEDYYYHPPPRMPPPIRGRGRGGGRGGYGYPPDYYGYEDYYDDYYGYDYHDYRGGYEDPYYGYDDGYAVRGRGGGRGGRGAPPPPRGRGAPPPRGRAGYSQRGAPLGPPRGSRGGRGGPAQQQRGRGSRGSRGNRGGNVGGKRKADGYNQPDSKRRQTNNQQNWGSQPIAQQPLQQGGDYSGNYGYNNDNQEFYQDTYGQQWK", "in_short": "as §1"}, "C1QBP": {"molecular_target": "T2, C1QBP (UniProt Q07021)", "T2 sequence": "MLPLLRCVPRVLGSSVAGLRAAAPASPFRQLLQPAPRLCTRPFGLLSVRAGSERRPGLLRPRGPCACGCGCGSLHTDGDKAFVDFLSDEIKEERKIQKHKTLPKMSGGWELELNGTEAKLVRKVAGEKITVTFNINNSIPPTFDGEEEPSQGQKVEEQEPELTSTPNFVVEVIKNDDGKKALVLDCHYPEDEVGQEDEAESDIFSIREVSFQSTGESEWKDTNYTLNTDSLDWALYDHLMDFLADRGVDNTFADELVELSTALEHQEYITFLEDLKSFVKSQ", "in_short": "as §1"}, "RPS12": {"molecular_target": "RPS12 (UniProt P25398)", "in_short": "as §1"}, "IGF2BP1": {"molecular_target": "IGF2BP1 (UniProt Q9NZI8)", "sequence (Q9NZI8 whole entry)": "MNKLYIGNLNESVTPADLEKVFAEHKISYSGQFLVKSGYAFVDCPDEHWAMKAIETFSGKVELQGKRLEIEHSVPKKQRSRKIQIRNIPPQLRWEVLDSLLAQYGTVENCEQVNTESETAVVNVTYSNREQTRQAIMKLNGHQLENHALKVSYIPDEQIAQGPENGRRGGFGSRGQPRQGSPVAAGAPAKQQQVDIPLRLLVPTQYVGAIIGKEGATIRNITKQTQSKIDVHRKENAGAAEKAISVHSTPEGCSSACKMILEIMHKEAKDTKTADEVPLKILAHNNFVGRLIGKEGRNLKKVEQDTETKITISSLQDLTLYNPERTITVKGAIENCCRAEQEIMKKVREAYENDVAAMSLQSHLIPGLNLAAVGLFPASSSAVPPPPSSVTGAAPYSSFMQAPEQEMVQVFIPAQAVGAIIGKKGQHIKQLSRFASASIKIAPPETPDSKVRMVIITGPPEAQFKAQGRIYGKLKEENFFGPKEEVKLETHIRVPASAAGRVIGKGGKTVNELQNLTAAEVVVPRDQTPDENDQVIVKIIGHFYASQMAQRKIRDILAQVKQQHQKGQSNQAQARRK", "in_short": "as §1"}, "MRPL1": {"molecular_target": "MRPL1 (UniProt Q9BYD6)", "in_short": "as §1"}, "MEX3C": {"molecular_target": "T3, MEX3C (UniProt Q5U5Q3)", "T3 sequence": "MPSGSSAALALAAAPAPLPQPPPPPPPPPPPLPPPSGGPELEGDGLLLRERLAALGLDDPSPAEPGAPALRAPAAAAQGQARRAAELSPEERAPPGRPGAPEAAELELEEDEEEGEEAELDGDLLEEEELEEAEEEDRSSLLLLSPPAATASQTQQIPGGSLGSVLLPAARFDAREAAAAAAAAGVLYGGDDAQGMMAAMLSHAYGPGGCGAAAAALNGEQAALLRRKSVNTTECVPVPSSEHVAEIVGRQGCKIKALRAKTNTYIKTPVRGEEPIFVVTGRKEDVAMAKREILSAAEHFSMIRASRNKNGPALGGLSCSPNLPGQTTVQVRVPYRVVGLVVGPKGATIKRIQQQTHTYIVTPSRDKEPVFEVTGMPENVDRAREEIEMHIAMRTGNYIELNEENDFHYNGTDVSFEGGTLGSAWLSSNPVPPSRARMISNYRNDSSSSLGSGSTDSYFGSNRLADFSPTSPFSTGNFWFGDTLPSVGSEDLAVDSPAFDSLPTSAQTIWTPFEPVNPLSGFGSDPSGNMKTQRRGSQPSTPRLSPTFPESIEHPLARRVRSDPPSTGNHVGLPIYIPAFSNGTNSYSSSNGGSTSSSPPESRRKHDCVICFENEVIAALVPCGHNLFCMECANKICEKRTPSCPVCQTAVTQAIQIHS", "in_short": "as §1"}, "ATIC": {"molecular_target": "ATIC (UniProt P31939)", "sequence (P31939 whole entry, looked up)": "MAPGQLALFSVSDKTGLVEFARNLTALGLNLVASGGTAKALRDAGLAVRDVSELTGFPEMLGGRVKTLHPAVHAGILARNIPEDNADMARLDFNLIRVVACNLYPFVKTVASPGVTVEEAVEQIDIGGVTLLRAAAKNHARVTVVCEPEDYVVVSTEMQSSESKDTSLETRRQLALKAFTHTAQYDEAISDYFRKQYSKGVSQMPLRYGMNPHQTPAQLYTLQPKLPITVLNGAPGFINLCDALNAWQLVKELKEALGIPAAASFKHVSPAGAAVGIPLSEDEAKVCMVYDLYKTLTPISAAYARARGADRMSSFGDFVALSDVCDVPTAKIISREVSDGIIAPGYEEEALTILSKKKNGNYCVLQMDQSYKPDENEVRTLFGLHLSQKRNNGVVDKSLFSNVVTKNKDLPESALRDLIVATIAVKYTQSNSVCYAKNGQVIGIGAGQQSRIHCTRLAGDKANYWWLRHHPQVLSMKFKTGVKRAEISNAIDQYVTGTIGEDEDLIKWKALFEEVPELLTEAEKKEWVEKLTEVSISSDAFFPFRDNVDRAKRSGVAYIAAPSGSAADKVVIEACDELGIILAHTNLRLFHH", "in_short": "as §1"}, "ZCRB1": {"molecular_target": "T4, ZCRB1 (UniProt Q8TBF4)", "T4 sequence": "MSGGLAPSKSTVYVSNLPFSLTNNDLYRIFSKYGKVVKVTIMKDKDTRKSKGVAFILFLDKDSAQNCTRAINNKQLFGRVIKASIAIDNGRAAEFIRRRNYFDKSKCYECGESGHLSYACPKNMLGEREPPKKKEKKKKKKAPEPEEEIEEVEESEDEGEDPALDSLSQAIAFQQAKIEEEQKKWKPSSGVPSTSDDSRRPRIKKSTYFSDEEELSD", "in_short": "as §1"}, "LSM8": {"molecular_target": "T5, LSM8 (UniProt O95777)", "T5 sequence": "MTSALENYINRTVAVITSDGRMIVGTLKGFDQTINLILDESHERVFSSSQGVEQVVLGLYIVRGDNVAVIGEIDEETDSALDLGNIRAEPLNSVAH", "in_short": "as §1"}}}
{"sequence": "AAUAAA", "values": [{"measurement": "EC50", "setting": "P4HB", "value": 40.4, "unit": "nM"}, {"measurement": "EC50", "setting": "GPATCH11", "value": 122, "unit": "nM"}, {"measurement": "EC50", "setting": "SF3B6", "value": 4620, "unit": "nM"}, {"measurement": "EC50", "setting": "P4HA2", "value": 38.9, "unit": "nM"}, {"measurement": "EC50", "setting": "HNRNPR", "value": 2840, "unit": "nM"}, {"measurement": "EC50", "setting": "C1QBP", "value": 1470, "unit": "nM"}]}
{"sequence": "CUGUCCU", "values": [{"measurement": "EC50", "setting": "RPS12", "value": 392, "unit": "nM"}, {"measurement": "EC50", "setting": "IGF2BP1", "value": 3740, "unit": "nM"}, {"measurement": "EC50", "setting": "MRPL1", "value": 259, "unit": "nM"}]}
{"sequence": "UAUUUAU", "values": [{"measurement": "EC50", "setting": "MEX3C", "value": 799, "unit": "nM"}, {"measurement": "EC50", "setting": "ATIC", "value": 804, "unit": "nM"}, {"measurement": "EC50", "setting": "ZCRB1", "value": 3800, "unit": "nM"}, {"measurement": "EC50", "setting": "LSM8", "value": 9580, "unit": "nM"}]}
